Experimental data from publication PMC2953525, “Subtle Alterations in PCNA-Partner Interactions Severely Impair DNA Replication and Repair” (PLoS Biology, 2010).

Legend:
[1] = test system: PCNA-Rad30 complex; assay: ELISA for PCNA-partner complexes extracted from yeast cells; assay type: binding; conditions: ELISA of yeast extracts, GFP signal normalized to immobilized PCNA signal; averages of at least 5 independent repeats
Text: (§1) To examine whether increased PCNA-partner interaction affinities result in increased PCNA-partner complex formation in vivo in pol30 mutant strains, we analyzed the levels of these complexes extracted from yeast cells. We used strains expressing the pol30 mutants as a sole source of PCNA in the cell under the control of the native POL30 promoter (see below). We immobilized PCNA from the crude yeast extracts onto ELISA plates and analyzed the amount of bound partner, relative to the amount of total PCNA immobilized on the plate (Figure 4).
(§2) Figure 4 Increased levels of in vivo PCNA-partner complex formation in the pol30-Rad30E2 or the pol30-Rad27E6 mutant strains, relative to the POL30 strain. (A). ELISA experimental set-up for the detection of PCNA-partner complexes extracted directly from WT and mutant PCNA strains. The assay is based on the immobilization of PCNA-partner complex using anti-PCNA antibody-coated ELISA plates. Detection of complex levels is performed using antibodies against the GFP fused to the C-terminal of the PCNA partner. […]
(§3) Yeast cell extracts were generated from 0.5 L of logarithmic cultures using conventional methods. […] Following centrifugation, cell extracts were collected and protein concentration was determined by the BCA method. […] PCNA-partner complex levels were calculated as the ratio of the GFP signal to the PCNA signal detected for the same cell extract. […]

[2] = test system: PCNA-Rad27 complex; assay: as above; assay type: binding; conditions: ELISA of yeast extracts, GFP signal normalized to immobilized PCNA signal; averages of at least 5 independent repeats
Text: as §1, §2, §3

[3] = target: T1, pol30-Pol32E9 (yeast, UniProt P15873 1-258, IDCL DIDADFLKIEEL to DNDVDSLKIIEL); assay: two-hybrid; pAD-GAL4-PCNA WT or mutant (called bait) and pBD-GAL4-partner (called prey) in strain YRG2; 10-fold serial dilutions spotted on SC-Leu-Trp-His plates, 30°C, 3 d; growth similar to WT PCNA is denoted 1; conditions: partners not purified
T1 construct: PCNA (POL30), yeast; source: yeast two-hybrid fusion (pAD-GAL4, strain YRG2)
T1 sequence: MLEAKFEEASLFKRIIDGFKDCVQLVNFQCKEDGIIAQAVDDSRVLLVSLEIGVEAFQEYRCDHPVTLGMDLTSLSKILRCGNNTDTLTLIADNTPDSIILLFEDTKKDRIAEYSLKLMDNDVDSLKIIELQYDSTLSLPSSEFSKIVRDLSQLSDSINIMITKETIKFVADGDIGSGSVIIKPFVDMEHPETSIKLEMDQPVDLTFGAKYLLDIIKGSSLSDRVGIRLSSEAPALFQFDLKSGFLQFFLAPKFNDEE

[4] = target: T2, pol30-Msh6E6 (yeast, UniProt P15873 1-258, IDCL DIDADFLKIEEL to DYDKDLLKIIEL); assay: as above; conditions: partners not purified
T2 construct: PCNA (POL30), yeast; source: yeast two-hybrid fusion (pAD-GAL4, strain YRG2)
T2 sequence: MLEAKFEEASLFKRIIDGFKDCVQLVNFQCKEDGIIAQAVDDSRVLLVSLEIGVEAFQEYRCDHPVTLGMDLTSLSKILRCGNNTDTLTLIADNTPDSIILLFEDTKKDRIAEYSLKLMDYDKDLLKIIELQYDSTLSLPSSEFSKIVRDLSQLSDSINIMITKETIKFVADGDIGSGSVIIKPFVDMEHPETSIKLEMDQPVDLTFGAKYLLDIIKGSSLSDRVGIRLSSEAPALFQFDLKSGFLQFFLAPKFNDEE

[5] = target: T3, pol30-Msh6E2 (yeast, UniProt P15873 1-258, IDCL DIDADFLKIEEL to DYDRDMLKISEL); assay: as above; conditions: partners not purified
T3 construct: PCNA (POL30), yeast; source: yeast two-hybrid fusion (pAD-GAL4, strain YRG2)
T3 sequence: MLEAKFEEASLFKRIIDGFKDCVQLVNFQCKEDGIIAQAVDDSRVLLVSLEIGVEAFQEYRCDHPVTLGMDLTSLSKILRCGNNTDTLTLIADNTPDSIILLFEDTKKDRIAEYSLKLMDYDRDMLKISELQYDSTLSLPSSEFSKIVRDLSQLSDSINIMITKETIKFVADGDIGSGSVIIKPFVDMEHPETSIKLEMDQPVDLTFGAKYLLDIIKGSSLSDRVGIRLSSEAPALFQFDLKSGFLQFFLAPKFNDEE

B1: pol30-Rad30E2: PCNA mutant evolved for Rad30, IDCL sequence DDDWDFLKILEL (protein)
chain: MLEAKFEEASLFKRIIDGFKDCVQLVNFQCKEDGIIAQAVDDSRVLLVSLEIGVEAFQEYRCDHPVTLGMDLTSLSKILRCGNNTDTLTLIADNTPDSIILLFEDTKKDRIAEYSLKLMDDDWDFLKILELQYDSTLSLPSSEFSKIVRDLSQLSDSINIMITKETIKFVADGDIGSGSVIIKPFVDMEHPETSIKLEMDQPVDLTFGAKYLLDIIKGSSLSDRVGIRLSSEAPALFQFDLKSGFLQFFLAPKFNDEE
modifications: left off: Gal4 activation domain, end not stated, kept
In the case of B1, the “increase in PCNA-Rad30 complex formation relative to the POL30 WT strain” value [1] is reported as 70%.

B2: pol30-Rad27E6: PCNA mutant evolved for Rad27, IDCL sequence DGDYDILKIREL (protein)
chain: MLEAKFEEASLFKRIIDGFKDCVQLVNFQCKEDGIIAQAVDDSRVLLVSLEIGVEAFQEYRCDHPVTLGMDLTSLSKILRCGNNTDTLTLIADNTPDSIILLFEDTKKDRIAEYSLKLMDGDYDILKIRELQYDSTLSLPSSEFSKIVRDLSQLSDSINIMITKETIKFVADGDIGSGSVIIKPFVDMEHPETSIKLEMDQPVDLTFGAKYLLDIIKGSSLSDRVGIRLSSEAPALFQFDLKSGFLQFFLAPKFNDEE
modifications: left off: Gal4 activation domain, end not stated, kept
B2 was tested, and the “increase in PCNA-Rad27 complex formation relative to the POL30 WT strain” value [2] was 17%.

B3: Rad27 (natural protein, yeast, UniProt P26793 1-382, looked up)
chain: MGIKGLNAIISEHVPSAIRKSDIKSFFGRKVAIDASMSLYQFLIAVRQQDGGQLTNEAGETTSHLMGMFYRTLRMIDNGIKPCYVFDGKPPDLKSHELTKRSSRRVETEKKLAEATTELEKMKQERRLVKVSKEHNEEAQKLLGLMGIPYIIAPTEAEAQCAELAKKGKVYAAASEDMDTLCYRTPFLLRHLTFSEAKKEPIHEIDTELVLRGLDLTIEQFVDLCIMLGCDYCESIRGVGPVTALKLIKTHGSIEKIVEFIESGESNNTKWKIPEDWPYKQARMLFLDPEVIDGNEINLKWSPPKEKELIEYLCDDKKFSEERVKSGISRLKKGLKSGIQGRLDGFFQVVPKTKEQLAAAAKRAQENKKLNKNKNKVTKGRR
notes: Rad27 (endonuclease), yeast; also called pBD-Rad27; source: yeast two-hybrid fusion (pBD-GAL4, strain YRG2)
With B3 the “fold change in affinity relative to WT PCNA (Y2H)” value [3] was 1.2 fold, the “fold change in affinity relative to WT PCNA (Y2H)” value [4] was 1.3 fold and the “fold change in affinity relative to WT PCNA (Y2H)” value [5] was 1.3 fold.
